We go through 1 substance from publication PMC10082768.

Assay [1] deals with MUC2-C, the C-terminal part of the human MUC2 mucin, fully glycosylated (human). The experiment in a line: polyacrylamide gel electrophoresis, non-reduced against reduced; purified MUC2-C; band of around 300 kDa non-reduced, about 150 kDa after reduction.
The target is the same in assay [2]. Briefly: SEC-SAXS; 25 °C; 25 mM HEPES pH 7.4, 100 mM NaCl, 10 mM CaCl2; beamline BM29, ESRF.

Take “MUC2-C, the C-terminal part of the human MUC2 mucin, fully glycosylated (domain or fragment)”: the stoichiometry N in assay [1] and in assay [2] was 2 throughout.
